Experimental data from patent publication US20200199234A1 (published 2020).

T1: human CD19 on Nalm6 B cells (human, UniProt P15391 20-556)
T1 sequence: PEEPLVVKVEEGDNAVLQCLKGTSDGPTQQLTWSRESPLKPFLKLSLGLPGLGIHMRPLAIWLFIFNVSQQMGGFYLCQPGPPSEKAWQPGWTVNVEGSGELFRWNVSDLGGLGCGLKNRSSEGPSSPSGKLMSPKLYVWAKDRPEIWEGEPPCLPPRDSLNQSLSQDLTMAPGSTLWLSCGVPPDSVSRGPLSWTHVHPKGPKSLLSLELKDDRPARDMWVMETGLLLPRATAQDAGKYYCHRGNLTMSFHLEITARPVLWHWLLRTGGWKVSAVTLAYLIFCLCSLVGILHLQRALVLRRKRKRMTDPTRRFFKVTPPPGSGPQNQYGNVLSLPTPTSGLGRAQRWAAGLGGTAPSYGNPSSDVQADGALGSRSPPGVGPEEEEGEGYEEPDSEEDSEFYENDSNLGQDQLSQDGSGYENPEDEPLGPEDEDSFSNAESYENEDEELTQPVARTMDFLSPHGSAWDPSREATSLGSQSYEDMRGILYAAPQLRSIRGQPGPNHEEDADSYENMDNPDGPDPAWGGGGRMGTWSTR

B1: Molecule 18C: CD19 (8B8-2B11)-CD28 (SA v8) 1+1 (bispecific antibody, human IgG1, kappa, L234A L235A)
heavy 1: not shown
heavy 2: DIVMTQTPLSLSVTPGQPASISCKSSQSLETSTGTTYLNWYLQKPGQSPQLLIYRVSKRFSGVPDRFSGSGSGTDFTLKISRVEAEDVGVYYCLQLLEDPYTFGQGTKLEIKSSASTKGPSVFPLAPSSKSTSGGTAALGCLVKDYFPEPVTVSWNSGALTSGVHTFPAVLQSSGLYSLSSVVTVPSSSLGTQTYICNVNHKPSNTKVDKKVEPKSCDKTHTCPPCPAPEAAGGPSVFLFPPKPKDTLMISRTPEVTCVVVDVSHEDPEVKFNWYVDGVEVHNAKTKPREEQYNSTYRVVSVLTVLHQDWLNGKEYKCKVSNKALGAPIEKTISKAKGQPREPQVCTLPPSRDELTKNQVSLSCAVKGFYPSDIAVEWESNGQPENNYKTTPPVLDSDGSFFLVSKLTVDKSRWQQGNVFSCSVMHEALHNHYTQKSLSLSP
light 1: not shown
light 2: QVQLVQSGAEVKKPGASVKVSCKASGYTFTDYIMHWVRQAPGQGLEWMGYINPYNDGSKYTEKFQGRVTMTSDTSISTAYMELSRLRSDDTAVYYCARGTYYYGPQLFDYWGQGTTVTVSSASVAAPSVFIFPPSDEQLKSGTASVVCLLNNFYPREAKVQWKVDNALQSGNSQESVTEQDSKDSTYSLSSTLTLSKADYEKHKVYACEVTHQGLSSPVTKSFNRGEC
notes: also called P1AF0175; CD19-CD28 v8
B2: Molecule 18E: CD19 (8B8-2B11)-CD28 (SA v27) 1+1 (bispecific antibody, human IgG1, kappa, L234A L235A)
heavy 1: not shown
heavy 2: B1 heavy 2
light 1: not shown
light 2: B1 light 2
notes: also called P1AF0378; CD19-CD28 v27
B3: Molecule 18B: CD19 (8B8-2B11)-CD28 (SA v15) 1+1 (bispecific antibody, human IgG1, kappa, L234A L235A)
heavy 1: not shown
heavy 2: B1 heavy 2
light 1: not shown
light 2: B1 light 2
notes: also called P1AE9040; CD19-CD28 v15
B4: Molecule 18A: CD19 (8B8-2B11)-CD28 (SA v29) 1+1 (bispecific antibody, human IgG1, kappa, L234A L235A)
heavy 1: not shown
heavy 2: B1 heavy 2
light 1: not shown
light 2: B1 light 2
notes: also called P1AE8002; CD19-CD28 v29
B5: Molecule 18D: CD19 (8B8-2B11)-CD28 (SA v11) 1+1 (bispecific antibody, human IgG1, kappa, L234A L235A)
heavy 1: not shown
heavy 2: B1 heavy 2
light 1: not shown
light 2: B1 light 2
notes: also called P1AF0377; CD19-CD28 v11
B6: Molecule 11D: CEA (A5H1EL1D)-CD28 (SA_Variant 29) 1+1 format (bispecific antibody, human IgG1, kappa, L234A L235A)
heavy 1: EIVLTQSPATLSLSPGERATLSCRASSSVTYIHWYQQKPGQAPRSWIYATSNLASGIPARFSGSGSGTDFTLTISSLEPEDFAVYYCQHWSSKPPTFGQGTKLEIKSSASTKGPSVFPLAPSSKSTSGGTAALGCLVKDYFPEPVTVSWNSGALTSGVHTFPAVLQSSGLYSLSSVVTVPSSSLGTQTYICNVNHKPSNTKVDKKVEPKSCDKTHTCPPCPAPEAAGGPSVFLFPPKPKDTLMISRTPEVTCVVVDVSHEDPEVKFNWYVDGVEVHNAKTKPREEQYNSTYRVVSVLTVLHQDWLNGKEYKCKVSNKALGAPIEKTISKAKGQPREPQVCTLPPSRDELTKNQVSLSCAVKGFYPSDIAVEWESNGQPENNYKTTPPVLDSDGSFFLVSKLTVDKSRWQQGNVFSCSVMHEALHNHYTQKSLSLSP
light 1: EVQLLESGGGLVQPGGSLRLSCAASGFTFTDYYMNWVRQAPGKGLEWLGFIGNKANAYTTEYSASVKGRFTISRDKSKNTLYLQMNSLRAEDTATYYCTRDRGLRFYFDYWGQGTTVTVSSASVAAPSVFIFPPSDEQLKSGTASVVCLLNNFYPREAKVQWKVDNALQSGNSQESVTEQDSKDSTYSLSSTLTLSKADYEKHKVYACEVTHQGLSSPVTKSFNRGEC
heavy 2: not shown
light 2: not shown
notes: also called P1AE4776; copies: 1 + 1 + 1 + 1
B7: Molecule 11A: CEA (A5H1EL1D)-CD28 (SA) 1+1 format (bispecific antibody, human IgG1, kappa, L234A L235A)
heavy 1: B6 heavy 1
light 1: B6 light 1
heavy 2: not shown
light 2: not shown
notes: also called P1AE4773; copies: 1 + 1 + 1 + 1
B8: Molecule 11B: CEA (A5H1EL1D)-CD28 (SA_Variant 8) 1+1 format (bispecific antibody, human IgG1, kappa, L234A L235A)
heavy 1: B6 heavy 1
light 1: B6 light 1
heavy 2: not shown
light 2: not shown
notes: also called P1AE4774; copies: 1 + 1 + 1 + 1
B9: Molecule 11C: CEA (A5H1EL1D)-CD28 (SA_Variant 15) 1+1 format (bispecific antibody, human IgG1, kappa, L234A L235A)
heavy 1: B6 heavy 1
light 1: B6 light 1
heavy 2: not shown
light 2: not shown
notes: also called P1AE4775; copies: 1 + 1 + 1 + 1
B10: FAP (4B9) - CD28 (CD28(SA)_Variant 11) 1+1 (bispecific antibody, human IgG1, kappa, L234A L235A)
heavy 1: EIVLTQSPGTLSLSPGERATLSCRASQSVTSSYLAWYQQKPGQAPRLLINVGSRRATGIPDRFSGSGSGTDFTLTISRLEPEDFAVYYCQQGIMLPPTFGQGTKVEIKSSASTKGPSVFPLAPSSKSTSGGTAALGCLVKDYFPEPVTVSWNSGALTSGVHTFPAVLQSSGLYSLSSVVTVPSSSLGTQTYICNVNHKPSNTKVDKKVEPKSCDKTHTCPPCPAPEAAGGPSVFLFPPKPKDTLMISRTPEVTCVVVDVSHEDPEVKFNWYVDGVEVHNAKTKPREEQYNSTYRVVSVLTVLHQDWLNGKEYKCKVSNKALGAPIEKTISKAKGQPREPQVCTLPPSRDELTKNQVSLSCAVKGFYPSDIAVEWESNGQPENNYKTTPPVLDSDGSFFLVSKLTVDKSRWQQGNVFSCSVMHEALHNHYTQKSLSLSP
light 1: EVQLLESGGGLVQPGGSLRLSCAASGFTFSSYAMSWVRQAPGKGLEWVSAIIGSGASTYYADSVKGRFTISRDNSKNTLYLQMNSLRAEDTAVYYCAKGWFGGFNYWGQGTLVTVSSASVAAPSVFIFPPSDEQLKSGTASVVCLLNNFYPREAKVQWKVDNALQSGNSQESVTEQDSKDSTYSLSSTLTLSKADYEKHKVYACEVTHQGLSSPVTKSFNRGEC
heavy 2: not shown
light 2: not shown
B11: FAP (4B9) - CD28 (CD28(SA)_Variant 12) 1+1 (bispecific antibody, human IgG1, kappa, L234A L235A)
heavy 1: B10 heavy 1
light 1: B10 light 1
heavy 2: not shown
light 2: DIQMTQSPSSLSASVGDRVTITCRASQNIYVWLNWYQQKPGKAPKLLIYKASNLYSGVPSRFSGSRSGTDFTLTISSLQPEDFATYYCQQGQTYPYTFGQGTKLEIKRTVAAPSVFIFPPSDRKLKSGTASVVCLLNNFYPREAKVQWKVDNALQSGNSQESVTEQDSKDSTYSLSSTLTLSKADYEKHKVYACEVTHQGLSSPVTKSFNRGEC
B12: FAP (4B9) - CD28 (CD28(SA)_Variant 15) 1+1 (bispecific antibody, human IgG1, kappa, L234A L235A)
heavy 1: B10 heavy 1
light 1: B10 light 1
heavy 2: not shown
light 2: not shown
B13: FAP (4B9) - CD28 (CD28(SA)_Variant 29) 1+1 (bispecific antibody, human IgG1, kappa, L234A L235A)
heavy 1: B10 heavy 1
light 1: B10 light 1
heavy 2: not shown
light 2: not shown

target: T2, human CD28 expressed on cells (CHO-k1 stably overexpressing human CD28; T cells in functional assays) (human, UniProt P10747 19-220); assay: flow cytometry on CHOk1-CD28 cells
T2 construct: also called CHO huCD28; CHOk1-CD28

Binder | EC50
B1 | 232 nM
B2 | 10.8 nM
B3 | 15.6 nM
B4 | 6.65 nM
B5 | 150 nM

target: T3, FcRn, biotinylated, coupled to streptavidin-sepharose (Homo sapiens (Human), UniProt P55899 24-297; P61769 21-119, The receptor is biotinylated and coupled to streptavidin-sepharose. The patent states neither the biotinylation site nor any tag.); assay: FcRn affinity chromatography
T3 construct: also called FcRn-sepharose matrix; copies: 1 + 1

Binder | FcRn affinity (relative retention time)
B6 | 0.17
B7 | 0.21
B8 | 0.08
B9 | 0.1

target: T1, human CD19 on Nalm6 B cells; assay: flow cytometry on Nalm6 cells

Binder | EC50
B1 | 0.232 nM
B2 | 0.368 nM
B3 | 0.416 nM
B4 | 0.274 nM
B5 | 0.363 nM

target: T2, human CD28 expressed on cells (CHO-k1 …); assay: cell-based or functional assay

Binder | EC50 killing (nM), TCB-mediated killing of MV3 target cells
B10 | 1.73 nM
B11 | 0.98 nM
B12 | 1.79 nM
B13 | 1.11 nM
